Blank lines part the entries; values can stand above or below the binder they belong to.
Key:
Assay in all cases: two-hybrid library CCNG1;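 also: natural log of median RNA to DNA barcode read ratio; higher means stronger binding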
O2-bS = target: T1, O2-bS
T1 chain: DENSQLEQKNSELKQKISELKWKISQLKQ

4H741-bN = target: T2, 4H741-bN
T2 chain: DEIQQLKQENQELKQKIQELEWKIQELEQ

4H3817-bH = target: T3, 4H3817-bH
T3 chain: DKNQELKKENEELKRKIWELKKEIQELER

4H3974-bH = target: T4, 4H3974-bH
T4 chain: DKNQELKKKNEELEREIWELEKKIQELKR

4H850-bH = target: T5, 4H850-bH
T5 chain: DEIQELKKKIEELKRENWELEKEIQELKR

4H3172-bH = target: T6, 4H3172-bH
T6 chain: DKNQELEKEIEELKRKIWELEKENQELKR

4H3631-bH = target: T7, 4H3631-bH
T7 chain: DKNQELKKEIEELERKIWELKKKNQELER

4H570-bH = target: T8, 4H570-bH
T8 chain: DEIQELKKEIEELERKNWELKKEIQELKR

4H3129-bH = target: T9, 4H3129-bH
T9 chain: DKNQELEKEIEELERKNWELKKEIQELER

4H584-bH = target: T10, 4H584-bH
T10 chain: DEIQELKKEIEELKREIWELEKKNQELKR

4H3638-bH = target: T11, 4H3638-bH
T11 chain: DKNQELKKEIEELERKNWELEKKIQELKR

4H906-bH = target: T12, 4H906-bH
T12 chain: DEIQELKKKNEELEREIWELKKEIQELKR

4H3414-bH = target: T13, 4H3414-bH
T13 chain: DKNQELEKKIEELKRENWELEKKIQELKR

4H619-bH = target: T14, 4H619-bH
T14 chain: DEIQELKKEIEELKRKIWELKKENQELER

4H918-bH = target: T15, 4H918-bH
T15 chain: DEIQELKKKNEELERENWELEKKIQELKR

4H2697-bH = target: T16, 4H2697-bH
T16 chain: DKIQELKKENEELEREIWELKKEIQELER

4H3606-bH = target: T17, 4H3606-bH
T17 chain: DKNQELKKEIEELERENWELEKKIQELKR

4H3189-bH = target: T18, 4H3189-bH
T18 chain: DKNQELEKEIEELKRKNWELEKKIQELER

4H797-bH = target: T19, 4H797-bH
T19 chain: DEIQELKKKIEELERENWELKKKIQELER

4H3843-bH = target: T20, 4H3843-bH
T20 chain: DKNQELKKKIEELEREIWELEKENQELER

4H462-bH = target: T21, 4H462-bH
T21 chain: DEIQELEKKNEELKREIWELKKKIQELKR

4H370-bH = target: T22, 4H370-bH
T22 chain: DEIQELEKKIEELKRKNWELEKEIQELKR

4H967-bH = target: T23, 4H967-bH
T23 chain: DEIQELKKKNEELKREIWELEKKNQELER

4H568-bH = target: T24, 4H568-bH
T24 chain: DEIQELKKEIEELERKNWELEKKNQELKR

4H953-bH = target: T25, 4H953-bH
T25 chain: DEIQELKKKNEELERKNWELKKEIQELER

4H331-bH = target: T26, 4H331-bH
T26 chain: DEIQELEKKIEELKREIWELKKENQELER

4H883-bH = target: T27, 4H883-bH
T27 chain: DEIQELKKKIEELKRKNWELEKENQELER

4H3782-bH = target: T28, 4H3782-bH
T28 chain: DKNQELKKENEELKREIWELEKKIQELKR

4H72-bH = target: T29, 4H72-bH
T29 chain: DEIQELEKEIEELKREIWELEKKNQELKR

4H607-bH = target: T30, 4H607-bH
T30 chain: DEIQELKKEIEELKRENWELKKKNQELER

4H687-bH = target: T31, 4H687-bH
T31 chain: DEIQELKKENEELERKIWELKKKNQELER

4H4001-bH = target: T32, 4H4001-bH
T32 chain: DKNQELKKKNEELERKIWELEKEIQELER

4H470-bA = target: T33, 4H470-bA
T33 chain: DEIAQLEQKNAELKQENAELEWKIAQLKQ

4H3961-bA = target: T34, 4H3961-bA; details: mean of both orientations
T34 chain: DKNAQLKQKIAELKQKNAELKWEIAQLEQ

O4-bS = target: T35, O4-bS
T35 chain: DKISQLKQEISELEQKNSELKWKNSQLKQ

O6-bS = target: T36, O6-bS
T36 chain: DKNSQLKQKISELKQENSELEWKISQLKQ

O8-bS = target: T37, O8-bS
T37 chain: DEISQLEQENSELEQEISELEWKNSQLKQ

O7-bS = target: T38, O7-bS
T38 chain: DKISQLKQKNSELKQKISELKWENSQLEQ

O9-bS = target: T39, O9-bS
T39 chain: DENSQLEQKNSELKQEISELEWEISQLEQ

O5-bS = target: T40, O5-bS
T40 chain: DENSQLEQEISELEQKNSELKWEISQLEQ

4H949-bA = target: T41, 4H949-bA
T41 chain: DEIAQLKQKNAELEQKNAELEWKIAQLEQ

4H932-bA = target: T42, 4H932-bA
T42 chain: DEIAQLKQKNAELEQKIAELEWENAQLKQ

4H796-bA = target: T43, 4H796-bA
T43 chain: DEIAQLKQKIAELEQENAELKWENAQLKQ

O3-bS = target: T44, O3-bS
T44 chain: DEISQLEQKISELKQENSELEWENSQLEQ

4H3277-bH = target: T45, 4H3277-bH
T45 chain: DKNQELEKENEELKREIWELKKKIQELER

4H2915-bH = target: T46, 4H2915-bH
T46 chain: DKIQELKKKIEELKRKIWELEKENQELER

4H3057-bH = target: T47, 4H3057-bH
T47 chain: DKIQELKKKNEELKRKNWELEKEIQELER

4H2692-bH = target: T48, 4H2692-bH
T48 chain: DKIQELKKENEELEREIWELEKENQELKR

4H2717-bH = target: T49, 4H2717-bH
T49 chain: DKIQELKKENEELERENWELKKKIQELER

4H348-bH = target: T50, 4H348-bH
T50 chain: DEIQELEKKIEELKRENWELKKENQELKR

4H319-bH = target: T51, 4H319-bH
T51 chain: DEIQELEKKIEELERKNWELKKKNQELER

4H477-bH = target: T52, 4H477-bH
T52 chain: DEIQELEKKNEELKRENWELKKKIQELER

4H40-bH = target: T53, 4H40-bH
T53 chain: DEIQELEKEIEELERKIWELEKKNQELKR

4H741-bH = target: T54, 4H741-bH
T54 chain: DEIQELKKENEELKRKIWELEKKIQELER

4H2839-bH = target: T55, 4H2839-bH
T55 chain: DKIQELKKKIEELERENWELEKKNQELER

4H492-bH = target: T56, 4H492-bH
T56 chain: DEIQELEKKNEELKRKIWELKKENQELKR

P9A-bN = target: T57, P9A-bN
T57 chain: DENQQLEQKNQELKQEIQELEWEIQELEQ

P8A-bN = target: T58, P8A-bN
T58 chain: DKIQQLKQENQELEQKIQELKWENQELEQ

P7A-bN = target: T59, P7A-bN
T59 chain: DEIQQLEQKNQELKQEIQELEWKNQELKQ

P9mSN = target: T60, P9mSN
T60 chain: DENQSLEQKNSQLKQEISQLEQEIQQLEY

interaction score (4H470-bA): -0.153
interaction score (4H3961-bA): -1.09
Binder: DKNAQLKQKIAELKQKNAELKWEIAQLEQ [4H3961-bA]

interaction score (4H3817-bH): -0.475
interaction score (4H3974-bH): 0.353
interaction score (4H850-bH): -0.531
interaction score (4H3172-bH): 0.448
interaction score (4H3631-bH): 0.994
interaction score (4H570-bH): 0.871
interaction score (4H584-bH): -1.68
interaction score (4H3638-bH): -0.13
interaction score (4H906-bH): -0.821
interaction score (4H3414-bH): 0.693
interaction score (4H619-bH): -1.22
Binder: DKNQELEKEIEELKRKIWELEKENQELKR [4H3172-bH]

interaction score (P9A-bN): -1.19
interaction score (P8A-bN): 2.12
interaction score (P7A-bN): 0.344
Binder: DEIQQLEQKNQELKQEIQELEWKNQELKQ [P7A-bN]

interaction score (P9A-bN): 0.0031
interaction score (P8A-bN): -0.195
interaction score (P7A-bN): 0.204
interaction score (P9mSN): -0.239
Binder: DKNQQLKQEIQELEQENQELEWKIQELKQ [P6A-bN]

The next lines start with the binder.

Binder: DEIQQLKQENQELKQKIQELEWKIQELEQ [4H741-bN]
interaction score (O2-bS): -3.38
interaction score (4H741-bN): 1.19

Binder: DKNQELEKEIEELERKNWELKKEIQELER [4H3129-bH]
interaction score (4H3817-bH): -0.197
interaction score (4H3974-bH): -0.348
interaction score (4H850-bH): 0.17
interaction score (4H3172-bH): -0.227
interaction score (4H3631-bH): -0.645
interaction score (4H570-bH): -1.61
interaction score (4H3129-bH): -2.16
interaction score (4H584-bH): -0.445
interaction score (4H3638-bH): -1.18
interaction score (4H906-bH): -0.384
interaction score (4H3414-bH): 1.62
interaction score (4H619-bH): -0.44

Binder: DKIQELKKENEELEREIWELKKEIQELER [4H2697-bH]
interaction score (4H918-bH): -0.619
interaction score (4H2697-bH): 0.402
interaction score (4H3606-bH): -1.34
interaction score (4H3189-bH): -0.0723
interaction score (4H797-bH): -0.611
interaction score (4H3843-bH): -0.103
interaction score (4H462-bH): -0.915
interaction score (4H370-bH): -0.895
interaction score (4H967-bH): 0.26
interaction score (4H568-bH): -1.4
interaction score (4H953-bH): -0.201
interaction score (4H331-bH): 0.0266
interaction score (4H883-bH): -0.628
interaction score (4H3782-bH): 0.502
interaction score (4H72-bH): -1.97
interaction score (4H607-bH): -0.619
interaction score (4H687-bH): -0.768
interaction score (4H4001-bH): -0.578

Binder: DENSQLEQKNSELKQKISELKWKISQLKQ [O2-bS]
interaction score (O4-bS): -1.49
interaction score (O6-bS): -1.1
interaction score (O8-bS): -2.49
interaction score (O7-bS): -0.412
interaction score (O9-bS): -1.59
interaction score (O2-bS): -0.754
interaction score (O5-bS): -2.56

Binder: DEIAQLKQKIAELEQENAELKWENAQLKQ [4H796-bA]
interaction score (4H949-bA): -0.898
interaction score (4H932-bA): -0.164
interaction score (4H796-bA): 0.961
interaction score (O3-bS): -0.947

Binder: DEIAQLEQKNAELKQENAELEWKIAQLKQ [4H470-bA]
interaction score (4H470-bA): 0.201

Binder: DKIQELKKENEELEREIWELEKENQELKR [4H2692-bH]
interaction score (4H3277-bH): -0.368
interaction score (4H2915-bH): 0.971
interaction score (4H3057-bH): -0.0522
interaction score (4H2692-bH): 0.733
interaction score (4H2717-bH): -0.125
interaction score (4H348-bH): -0.787
interaction score (4H319-bH): -1.1
interaction score (4H477-bH): -0.436
interaction score (4H40-bH): 0.218
interaction score (4H741-bH): -1.04
interaction score (4H2839-bH): -0.447
interaction score (4H492-bH): 1.54
